The supplement of paper PMC11865577

Experiments:
Assay in all cases: pull-down binding Z-score (relative to library population); higher = stronger binding
TO-N3 (biotin conjugate) = settings: RNA library: Library-2
Summary of the method: (§1)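 Binding is given as a Z-score against the library mean and standard deviation, calculated after removing the beads-only signal and averaging barcoded replicate probes without their highest and lowest values. Cy5- or Cy3-end-labelled RNA library (1 μg) was heat-folded in phosphate/NaCl/KCl buffer and incubated 60 min at 25 °C with streptavidin beads bearing 100 pmol of biotin-conjugated small molecule. After three washes, RNA eluted in hot SDS was hybridised to a DNA barcode microarray for 20 h at 55.5 °C.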

[1] = test system: TO-N3-2 (biotin conjugate); settings: RNA library: Library-2
Summary of the method: as §1

[2] = test system: TO-3-N3-2 (biotin conjugate); settings: RNA library: Library-2
Summary of the method: as §1

[3] = test system: G-clamp-N3 (biotin conjugate); settings: RNA library: Library-1 (pre-miRNA loops + repeats)
Summary of the method: as §1

[4] = test system: TO-3-N3 (biotin conjugate); settings: RNA library: Library-2
Summary of the method: as §1

Sequence	pull-down binding Z-score (TO-N3 (biotin conjugate))	pull-down binding Z-score [1]	pull-down binding Z-score [2]	pull-down binding Z-score [3]	pull-down binding Z-score [4]
UGGUUUCACUA [hsa-mir-3713]	0.378	-0.526	-0.427	-1.64	0.624
GGGCGCCGGCGGCCGGGAGAUCCGCGCUUCCUGAAUCCCGGCCGGCCCGCCCGGCGCCC [hsa-mir-4497]	0.447	1.22	-0.00137	-0.232	0.25
GAAUUCGAUUCAUCAAAGCGAGUC [hsa-mir-485]	0.0539	0.225	0.143	-0.234	-0.128
CUUAAGUGGUUCGGGUAAAUCACUUUAA [hsa-mir-3977]	-0.623	-0.585	-0.186	-1.04	-0.623
UGUAUAGUAUUAUUCAAUACC [hsa-mir-1912]	-0.445	-0.694	-0.0289	0.737	-0.222
UAAAGAGUAUUCAACAUC [hsa-mir-1245b]	-0.49	-0.373	0.0553	-0.935	-0.609
GGUAGAGAUGAUUUUUCCUACU [hsa-mir-5003]	1.78	0.226	0.65	0.245	1.76
GCCUGCCCUGAGUCCCCCAGCAGGU [hsa-mir-3907]	1.46	0.912	0.663	-0.55	1.45
UAUUGUGUUGAUCAACAAUA [hsa-mir-5590]	-0.668	-0.668	-0.465	-0.46	-0.858
GAGGCCUCUUGCCAUGGCCUCC [hsa-mir-7113]	-0.406	0.766	-0.378	-1.1	-0.486
AGCACUUUGUGUUUUGUGAAAGAAAGUGCU [hsa-mir-516b-2]	-0.882	-0.576	-0.0767	2.82	-0.647
UGAUCAUUAUAUGUAUGAUGAGAUCAU [hsa-mir-4528]	-0.54	-0.0235	-0.131	1.33	-0.532
GGAGUCCUCUAGACACC [hsa-mir-6510]	0.373	-0.175	-0.348	-0.716	0.483
AUCUUCCUGACCUGGUAAUAAUUAGGUGAGAAGGAU [hsa-mir-8069-2_8069-1]	-1.2	-1.12	-0.589	0.78	-0.958
GUCAUUUCCCAUCACUAAUGGC [hsa-mir-6815]	-0.873	-0.881	-0.336	-0.92	-0.674
GGCCAUCUGGCC [hsa-mir-4252]	-0.667	-1.01	-0.435	0.63	-0.403

Sequence	pull-down binding Z-score (TO-N3 (biotin conjugate))	pull-down binding Z-score [1]	pull-down binding Z-score [2]	pull-down binding Z-score [3]	pull-down binding Z-score [4]
CUGAGUAACUUGUGCUUAUAACUCAG [hsa-mir-5000]	0.194	-0.396	0.379	0.251	0.396
AAGGCGGGUGGUGCUCAGAUCGCCU [hsa-mir-326]	0.274	0.779	0.00254	0.799	-0.0387
GAACCCAAGAAAAGCUGACUUGGAGGUCCC [hsa-mir-4667]	1.47	1.27	0.578	-0.432	1.21
CUAACAGGCCCCUGUCACCAUUAG [hsa-mir-5579]	-0.073	0.236	-0.144	-0.762	-0.463
AGAUCUAUGUCAUAUAUACAGAUAU [hsa-mir-3924]	0.742	-0.356	0.268	-0.51	0.902
GGAGACACUUUUACUAUAUAUAGUGGCUCC [hsa-mir-3156-1]	-1.5	-1.51	-0.555	-0.0968	-1.09
AUUGUACUGUGGUGGUUACAAU [hsa-mir-34b]	-0.984	-1.19	-0.429	0.118	-0.851
GUGGAGGUAGGCGAGAGUAAUAUAAUUUCUCCAGGAGAACAUCUGAGAGGGGAAGUUGCUUUCCUGCCCUGGCCCUUUCAC [hsa-mir-6076]	0.735	1.37	0.000368	-0.319	0.431
GGUGGGGGCUCUGAGUGGGGAAAGUGGGGGCCUAGGGGAGGUCACAGU [hsa-mir-4259]	4.21	2.4	3.57	0.943	4.45
UGAGUGGCAUAAUCAGAGUACAAUUUGAGUCAUGCCCAUACAUCA [hsa-mir-23c]	-0.271	0.0219	0.0374	-1.1	-0.338
GCCCUGGGCCGGGCGAUGUCCGCUUGGGGG [hsa-mir-6090]	1.11	1.41	0.149	-0.223	0.811
UUUCUCUUAUGUGAAAAAAAAGAAG [hsa-mir-525]	-0.463	-0.745	-0.174	-1.41	-0.283
UUGAGGGACAUGGUUAAUGGAAUUGUCUCA [hsa-mir-342]	0.413	0.641	0.0248	0.369	0.338
CUUCUGCUUCCUCUUAGCGCAGGAG [hsa-mir-1914]	-0.751	-0.409	-0.325	-1.66	-0.591
UCACAGGGCUCAGGGAAUGUGUCUGCACCUGUGA [hsa-mir-587]	0.469	0.206	0.0576	0.296	0.431
